The RNAGym collection of RNA variant scans (doi:10.1073/pnas.2313332121)
Fewer inactive variants are shown than the library holds.

B1: TPR 5TU (parent)
chain: GGAUCUUCUCGAUCUAACAAAAAAGACAAAUCUGCCACAAAGCUUGAGAGCAUCUUCGGAUGCAGAGGCGGCAGCCUUCGGUGGCGCGAUAGCGCCAACGUUCUCAACUAUGACACGCAAAACGCGUGCUCCGUUGAAUGGAGUUUAUCAUG

Variants of: B1
Assay: polymerase ribozyme fitness, log enrichment relative to wild type (log ratio); higher = more active; in vitro selection for triplet polymerase activity
How it was run: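 A single round of triplicate in vitro selection, including frozen incubation at −7 °C, was applied to PCR-built, transcribed mutant libraries of each subunit of a heterodimeric triplet polymerase ribozyme. Illumina sequencing of input and output libraries retained genotypes with ≥10 input reads and ≥1 read per output. Fitness is the base-2 logarithm of genotype enrichment divided by wild-type enrichment, from inverse-variance-weighted replicate averages.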

Variant	polymerase ribozyme fitness (log ratio)
U56A G59U C69A C87U U101C G140U	-3.01
G50A G94U A121C	-2.21
C38A A41C C54A G136U	-4.11
A3G U55A C93A	-3.2
U4G C8G A19G A49U U53C A73G G83A A98G A113C A115U	≤ -4.2
C54U A73C G94U C116G C125A U134A	≤ -4.2
C93U A122G C129U U146G	-3.83
A21C C57G C75A A98G A107U C123U A142U G143C	≤ -4.2
U7G C32U C38U U55G C57U U61A G62A G88A U146C	≤ -4.2
U9G U33G G34U G92A C105G C132U U139C	≤ -4.2
C14U A52G U53G G74A A91C C96U G141U	≤ -4.2
U31A C79U	-2.71
C36U U144C	-1.23
U4G G25U G48U U55G G84C A115C U134C	≤ -4.2
A37U A64G A73G G133U	-4.19
A40U A52G G65A G70A G128U	≤ -4.2
A29U C95A A106G U134A	≤ -4.2
G84U U102G A110G	≤ -4.2
U15G U31A U55A C93G	-2.44
A29U G50U G59A C87A	≤ -4.2
A24G G88U	≤ -4.2

Variant	polymerase ribozyme fitness (log ratio)
C87G C114U	-4.08
A40C A47U A60U	-1.07
A16C A22U A97U C114A U135G	≤ -4.2
G11C G25C A41C U78A C99G	-4.09
G42A C69G C72G C96U G143A	≤ -4.2
G136A	0.579
U56A U82G U139A	-4.02
U44C U61C A64G C85U C87G C95A C96G C99A G136A	≤ -4.2
G34A G94U U101A	≤ -4.2
G50A G86C C99U U104G C116G	≤ -4.2
C8A G94C	-3.7
A20C U44C U55G C69A	≤ -4.2
U56A G68A	-4.01
C57G G83U A147U	0.219
C96U G141U	-0.301
A17G C36G G83C C99U U104G C125U U145C A147C	≤ -4.2
G34U C96G U144C	≤ -4.2
A16C	-1.01
G46A G62U	-4.09
C99A	-0.806
U31C C32A C38U U56A G86A A98U	-4.14

Variant	polymerase ribozyme fitness (log ratio)
C57U G141A	0.719
A19C A66G	-3.95
A73G C87G G88C G124C U127G G143C U144A	≤ -4.2
C32G A40C G83C A110U U111C	≤ -4.2
U45G A47U U56A G67C A89U C96A A97G A138C	≤ -4.2
C51A U55A G94A C125A	-3.04
C85U C125A	-1.45
G81A A147U	0.732
G58C C96G C125G G143U	≤ -4.2
U55C A91G	-3.06
A16U A73G A107G A119G	≤ -4.2
C54U G80U	-0.459
C10G G88U C96U C132G	≤ -4.2
A41U C72G C76U A119G U134G A142U	≤ -4.2
C32U G68A G80C C96G A150U	≤ -4.2
C10A A52C C63U A91G A113U	≤ -4.2
A20U A24C A49C G71A C72A C93U C103G U109C	≤ -4.2
C96U A150C	-3.31
G83A G88C A91G C95U A137G	≤ -4.2
C5G U45C	-1.55
A23C U56A G81A U90A C95G G143U	≤ -4.2

Variant	polymerase ribozyme fitness (log ratio)
U31G G50U U82C A147U	-0.72
C8A A24U G71A G84A G143C	≤ -4.2
A137C A150G	-4.17
A3U U15A A21U U31A C85G	-0.347
C18U C85A	-0.837
A24U C87G C96U	≤ -4.2
A19U A39U U56A	-2.83
C5A A23C C85U G88A C105U A120G	≤ -4.2
U55A G59C	0.269
C5U C14U A26U C118G A121U	-3.94
A110U A142U A150U	≤ -4.2
G67U G74C A107U C123G	≤ -4.2
C96U C116G	0.963
A12U U55C A137C	-4.12
A28G A73U	≤ -4.2
U7C G50U	-2.42
C79U G143U	-4.12
U31A C93U A121U	-0.469
U6C A23U U31G G62A C95U C99G G100U C114U C129U	≤ -4.2
C57A A66G C87A	≤ -4.2
